Laboratory results reported in PMC5454392, “Selective BET bromodomain inhibition as an antifungal therapeutic strategy” (Nature Communications, 2017).
Read-outs that look alike come from different tables or passages of the source.

Key:
CaBdf1 BD2 [1] = biological target: T1, CaBdf1 BD2 (Candida albicans, UniProt Q5A4W8); experiment: HTRF assay, inhibition of BD binding to H4ac4 peptide; set-up: made in house; host or cells: E. coli BL21(DE3)
CaBdf1 BD1 [2] = biological target: T2, CaBdf1 BD1 (Candida albicans, UniProt Q5A4W8); experiment: as above; set-up: species or system C. albicans; conditions: HTRF, H4ac4 peptide, BETi, maximal concentration 10 μM
T2 construct: made in house; host or cells: E. coli BL21(DE3)

CaBdf1 BD2 [3] = biological target: T1, CaBdf1 BD2; experiment: Isothermal titration calorimetry (ITC); assay type: binding; set-up: His tag with TEV site (N, cleaved yes); made in house; host or cells: E. coli BL21(DE3); conditions: ITC
Method: (§1) Proteins used for crystallization and for ITC. […] Cells were resuspended in buffer A (50 mM Tris-HCl pH 7.5, 300 mM NaCl, 10% glycerol, 25 mM imidazole, 5 mM β-mercaptoethanol and protease inhibitors) and lysed by sonication. The cleared lysate was incubated with Ni-NTA resin (Qiagen) and washed with buffer A containing 0.5 M NaCl. Proteins were eluted with 250 mM imidazole, dialysed overnight in the presence of His-tagged TEV protease against buffer A containing no imidazole and incubated with Ni-NTA resin to remove His-tagged species. Proteins were further purified on a Superdex 75 10/300 (GE Healthcare) column in 50 mM Hepes pH 7.5, 150 mM NaCl, 0.5 mM dithiothreitol (DTT). Proteins were concentrated to >20 mg ml^−1 on a Centricon device (Millipore) and used for ITC, TSA and crystallization experiments. […] Expression and purification were performed as above, except that buffer A was replaced by buffer B (50 mM Hepes pH 7.5, 500 mM NaCl, 5% glycerol, 5 mM imidazole and protease inhibitors) and gel filtration was performed in 10 mM Hepes pH 7.5, 500 mM NaCl and 5% glycerol.
(§2) Calorimetric experiments were performed on a NanoITC calorimeter (TA Instruments) at 25 °C while stirring at 250 r.p.m. All proteins were buffer exchanged by gel filtration into 50 mM Hepes pH 7.5, 150 mM NaCl, 0.5 mM DTT, except for SMARCA2 and SMARCA4A BDs, which were exchanged into 10 mM Hepes pH 7.5, 500 mM NaCl and 5% glycerol. […] Titrations consisted of an initial injection of 1.5 μl followed by 19 identical injections of 2.5 μl made at time intervals of 5 min. ITC data were corrected for the heat of dilution of injectant into buffer and analysed with software provided by the manufacturer using a single binding site model. The first data point was excluded from the analysis. Thermodynamic parameters determined from the ITC data are summarized in Supplementary Table 1.

human Brd4 BD1 = human Brd4 BD1 (Homo sapiens, UniProt O60885); experiment: Isothermal titration calorimetry (ITC); assay type: binding; set-up: human Brd4 BD1 (residues 22–204); His tag with TEV site (N, cleaved yes); made in house; host or cells: E. coli BL21(DE3); conditions: ITC, 25 °C
Method: as §1, §2

CaBdf1 BD1 [4] = biological target: T2, CaBdf1 BD1; experiment: Isothermal titration calorimetry (ITC); assay type: binding; conditions: ITC
Method: as §1, §2

CaBdf1 BD1 Y248F = biological target: T3, CaBdf1 BD1 Y248F (Candida albicans, UniProt Q5A4W8, Y248F); experiment: Histone peptide microarray binding, YF mutant;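 for CaBdf1 BD1 Normalized (0 to 100%) YF mutant: normalized to spotted c-myc peptide positive control signal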; set-up: species or system C. albicans; conditions: YF mutant BD1; for CaBdf1 BD1 Normalized (0 to 100%) YF mutant: normalized array signal; for CaBdf1 BD1 Raw data YF mutant: peptide array signal
T3 construct: made in house; host or cells: E. coli BL21(DE3), inferred from the wild-type GST construct
Method: (§3) In short, arrays were blocked and incubated with 1 μM of purified CaBdf1 BD1 or BD2. Arrays were incubated with recombinant BDs for 2 h at 4 °C in binding buffer (Tris-HCl 50 mM pH 7.4, NP-40 0.1%, NaCl 150 mM, glycerol 10%). […] Assays were performed in duplicate. Images were acquired on a Bio-Rad ChemiDoc XRS Imaging machine and data were quantified using the array analyser software provided by Active Motif.

CaBdf1 BD2 Y425F = biological target: T4, CaBdf1 BD2 Y425F (Candida albicans, UniProt Q5A4W8, Y425F); experiment: Histone peptide microarray binding, YF mutant;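 for CaBdf1 BD2 Normalized (0 to 100%) YF mutant: normalized to spotted c-myc peptide positive control signal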; set-up: species or system C. albicans; conditions: YF mutant BD2; for CaBdf1 BD2 Normalized (0 to 100%) YF mutant: normalized array signal; for CaBdf1 BD2 Raw data YF mutant: peptide array signal
T4 construct: made in house; host or cells: E. coli BL21(DE3), inferred from the wild-type GST construct
Method: as §3

CaBdf1 BD2 [5] = biological target: T5, CaBdf1 BD2 (Candida albicans, UniProt Q5A4W8); assay type: binding; conditions: wild-type BD2; for CaBdf1 BD2 Normalized (0 to 100%) WT: normalized array signal; for CaBdf1 BD2 Raw data WT: peptide array signal;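 for CaBdf1 BD2 Normalized (0 to 100%) WT: normalized to spotted c-myc peptide positive control signal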
T5 construct: made in house; host or cells: E. coli BL21(DE3)
T5 sequence (Q5A4W8 whole entry, looked up): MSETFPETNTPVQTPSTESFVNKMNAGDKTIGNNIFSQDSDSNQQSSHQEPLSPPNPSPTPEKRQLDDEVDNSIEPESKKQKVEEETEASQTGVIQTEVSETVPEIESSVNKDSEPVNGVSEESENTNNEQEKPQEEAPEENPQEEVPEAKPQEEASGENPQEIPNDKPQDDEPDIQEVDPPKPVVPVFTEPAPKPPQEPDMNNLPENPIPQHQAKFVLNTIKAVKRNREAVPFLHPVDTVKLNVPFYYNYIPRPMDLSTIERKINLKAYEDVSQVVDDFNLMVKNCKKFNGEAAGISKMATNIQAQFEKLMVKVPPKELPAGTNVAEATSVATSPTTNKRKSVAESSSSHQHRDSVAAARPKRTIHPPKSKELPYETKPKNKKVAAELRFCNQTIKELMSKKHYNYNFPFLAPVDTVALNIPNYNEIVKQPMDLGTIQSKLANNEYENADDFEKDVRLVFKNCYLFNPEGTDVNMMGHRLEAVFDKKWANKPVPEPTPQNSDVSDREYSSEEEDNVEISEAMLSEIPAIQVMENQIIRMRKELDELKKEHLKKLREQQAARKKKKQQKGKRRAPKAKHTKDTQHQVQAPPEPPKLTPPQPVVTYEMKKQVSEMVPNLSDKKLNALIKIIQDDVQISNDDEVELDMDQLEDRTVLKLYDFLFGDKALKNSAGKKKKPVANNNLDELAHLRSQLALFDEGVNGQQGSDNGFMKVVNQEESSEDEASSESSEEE
Method: (§4) In short, arrays were blocked and incubated with 1 μM of purified CaBdf1 BD1 or BD2. Arrays were incubated with recombinant BDs for 2 h at 4 °C in binding buffer (Tris-HCl 50 mM pH 7.4, NP-40 0.1%, NaCl 150 mM, glycerol 10%). […] Assays were performed in duplicate.

CaBdf1 BD1 [6] = biological target: T6, CaBdf1 BD1 (Candida albicans, UniProt Q5A4W8); assay type: binding; conditions: wild-type BD1; for CaBdf1 BD1 Normalized (0 to 100%) WT: normalized array signal; for CaBdf1 BD1 Raw data WT: peptide array signal;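 for CaBdf1 BD1 Normalized (0 to 100%) WT: normalized to spotted c-myc peptide positive control signal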
T6 construct: made in house; host or cells: E. coli BL21(DE3)
T6 sequence (Q5A4W8 whole entry, looked up): T5 sequence (Q5A4W8 whole entry, looked up)
Method: as §4

T3 sequence (Q5A4W8 193-327 Y248F): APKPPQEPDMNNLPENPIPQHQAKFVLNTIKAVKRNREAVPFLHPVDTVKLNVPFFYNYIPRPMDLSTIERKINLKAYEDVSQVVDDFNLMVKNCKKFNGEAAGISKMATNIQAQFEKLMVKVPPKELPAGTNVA
T4 sequence (Q5A4W8 361-501 Y425F): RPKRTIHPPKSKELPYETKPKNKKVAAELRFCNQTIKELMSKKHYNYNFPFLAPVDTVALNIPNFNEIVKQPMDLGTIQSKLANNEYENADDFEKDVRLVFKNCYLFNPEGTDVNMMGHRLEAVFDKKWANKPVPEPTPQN

Molecule	IC50 (CaBdf1 BD2 [1])	IC50 (CaBdf1 BD1 [2]; read-out: IC50 values)	CaBdf1 BD1 Normalized (0 to 100%) YF mutant (CaBdf1 BD1 Y248F)	CaBdf1 BD1 Raw data YF mutant (CaBdf1 BD1 Y248F)	CaBdf1 BD2 Normalized (0 to 100%) YF mutant (CaBdf1 BD2 Y425F)	CaBdf1 BD2 Raw data YF mutant (CaBdf1 BD2 Y425F; first of two raw-data columns)	CaBdf1 BD2 Raw data YF mutant (CaBdf1 BD2 Y425F)	CaBdf1 BD2 Normalized (0 to 100%) WT (CaBdf1 BD2 [5])	CaBdf1 BD2 Raw data WT (CaBdf1 BD2 [5]; first of two raw-data columns)	CaBdf1 BD2 Raw data WT (CaBdf1 BD2 [5])	CaBdf1 BD1 Normalized (0 to 100%) WT (CaBdf1 BD1 [6])	CaBdf1 BD1 Raw data WT (CaBdf1 BD1 [6]; first of two raw-data columns)	CaBdf1 BD1 Raw data WT (CaBdf1 BD1 [6])	CaBdf1 BD1 Raw data YF mutant (CaBdf1 BD1 Y248F; first of two raw-data columns)	further results
CCOC(=O)Nc1cc(-c2ccc(C)c(NS(C)(=O)=O)c2)nn2c(C)nnc12 [Bromosporine, reference compound]	0.313 ± 0.002 µM	> 10 µM	–	–	–	–	–	–	–	–	–	–	–	–	–
COc1cc2c(cc1-c1c(C)noc1C)ncc1[nH]c(=O)n([C@H](C)c3ccccn3)c12 [IBET-151, reference compound]	1.47 ± 0.09 µM	0.303 ± 0.12 µM	–	–	–	–	–	–	–	–	–	–	–	–	–
Cc1sc2c(c1C)C(c1ccc(Cl)cc1)=N[C@@H](CC(=O)OC(C)(C)C)c1nnc(C)n1-2 [JQ1, reference compound]	–	–	–	–	–	–	–	–	–	–	–	–	–	–	IC50 (CaBdf1 BD2 [1]; HTRF, H4ac4 peptide, BETi, maximal concentration 10 μM, read-out: IC50 values): ~10 µM; binding to CaBdf1 BD2 (in words) (CaBdf1 BD2 [3]): no binding was detected; IC50 (CaBdf1 BD1 [2]; IC50 values): > 10 µM; N (stoichiometry) (human Brd4 BD1): 1.00 ± 0.03; TΔS (human Brd4 BD1): -2.935 kcal/mol; ΔH (human Brd4 BD1): -12.8 ± 0.12 kcal/mol; binding to CaBdf1 BD1 (in words) (CaBdf1 BD1 [4]): no binding was detected
COc1ccccc1S(=O)(=O)Nc1ccc2c(c1)CN(C)C(=O)N2 [PFI-1, reference compound]	~10 µM	> 10 µM	–	–	–	–	–	–	–	–	–	–	–	–	–
A Rme2s T Kme2 Q T A R Kme1 S T G G K A P R K Q	–	–	0.762%	0.005144	0.244%	0.002427	0.003398	0.444%	0.01441	0.005491	0.544%	0.006414	0.005345	–	–
A Rme2s T Kme2 Q T A R Kme3 S T G G K A P R K Q	–	–	0.312%	0.002058	0.44%	0.004369	0.002427	0.444%	0.01716	0.002745	0.145%	0.004276	0.001603	0.003086	–
A Rme2s T Kme2 Q T A Rme2s K S T G G K A P R K Q	–	–	0.624%	0.003086	0.244%	0.002427	0.004854	0.629%	0.00755	0.01579	0.181%	0.002672	0.003741	0.006173	–
A Rme2s T Kme3 Q T A R Kme1 S T G G K A P R K Q	–	–	0.831%	0.002743	0.195%	–	–	0.444%	0.01441	0.005491	0.471%	0.00481	0.005879	0.00823	–
A Rme2s T Kme3 Q T A R Kme3 S T G G K A P R K Q	–	–	0.797%	0.003772	0.537%	0.00534	0.002427	0.481%	0.01784	0.002745	0.254%	0.003207	0.004276	0.007888	–
A Rme2s T Kme3 Q T A Rme2s K S T G G K A P R K Q	–	–	0.346%	0.004115	0.244%	0.002427	0.003398	0.444%	0.008236	0.01167	0.29%	0.003207	0.00481	0.003429	–
